{"source": "paper PMC8724738", "about": "“Exon‐independent recruitment of SRSF1 is mediated by U1 snRNP stem‐loop 3”", "key": {"FUS RRM": {"molecular_target": "FUS RRM (UniProt P35637 285-371)", "sequence (P35637 285-371)": "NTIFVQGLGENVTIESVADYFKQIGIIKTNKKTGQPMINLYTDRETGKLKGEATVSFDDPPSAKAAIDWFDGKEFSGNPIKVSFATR", "assay": "NMR; 30 C; NMR/ITC: 10 mM NaPO4 pH 7.0, 50 mM L-Arg, 50 mM L-Glu, 5 mM DTT (TCEP for ITC); NMR 313 K (FUS 30 C), ITC 27 C; single-molecule: 50% nuclear extract, 3.2 mM MgCl2, 50 mM K-glutamate, 20 mM HEPES pH 7.5, 1.5 mM ATP, 30 C", "details": "protein: recombinant; hairpin"}, "GB1-SRSF1ΔRS": {"molecular_target": "GB1-SRSF1ΔRS (UniProt Q07955 1-197, del198-248)", "sequence (Q07955 1-197, stated change not applied)": "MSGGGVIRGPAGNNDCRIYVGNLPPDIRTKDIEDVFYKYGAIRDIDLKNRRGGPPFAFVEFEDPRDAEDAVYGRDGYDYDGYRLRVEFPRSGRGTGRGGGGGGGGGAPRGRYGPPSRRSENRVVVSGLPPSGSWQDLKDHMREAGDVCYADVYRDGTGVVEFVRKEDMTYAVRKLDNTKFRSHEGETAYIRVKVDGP", "assay": "ITC; 27 C; NMR buffer with TCEP; NMR/ITC: 10 mM NaPO4 pH 7.0, 50 mM L-Arg, 50 mM L-Glu, 5 mM DTT (TCEP for ITC); NMR 313 K (FUS 30 C), ITC 27 C; single-molecule: 50% nuclear extract, 3.2 mM MgCl2, 50 mM K-glutamate, 20 mM HEPES pH 7.5, 1.5 mM ATP, 30 C", "details": "protein: recombinant; hairpin"}}}
{"binder": "GCGAUUUCCCCAAAUGUGGGAAACUCGC (structured_RNA)", "note": "[U1 snRNA stem-loop 3 (SL3) wild type]", "values": [{"measurement": "binding result", "setting": "FUS RRM", "result": "binds"}, {"measurement": "Kd", "setting": "GB1-SRSF1ΔRS", "result": "10.9 ± 2.8", "unit": "µM"}]}
